# From a protein production outcome set (Wang et al. 2014)
# Assay: label from the status in PepcDB records
row,Sequence,protein production
1,MMKQNPILITGGTGTVGSRIASRLIKLGYRVRIASRKKGALADAEYVYFNWKYASSFTPALEQVKQIYLVAPVGVFDPAPYVLPFLKEAKRLGAKRVVMQSASVVSENGPVFGALHQAVREFPEWTVLRPSYFMQNFINVQHRMSIQTEGRITTASGEGKLGFIDADDIAETAVRALIDDVPHQTHHILTGPEALSYAEAAEIIGAAAGRRVEHVSISRSELQHKMEAGGLPADYAHFMAKLDEAISHGAEHRVTDTVKRVTGKEPRSLSEFAAAHAAYWTSFWTELEHHHHHH,failed
2,MMKTLSPLKASLFAILASSTVLVTTVSAEPSQECDHPRSEFHKRGDRMGHDGMHKMFEGLELTDTQKADIKKLFAEQRAARSDDKPTKEERLARRAEMHALITAATFDETQAKALIGAQQEKRQAQAIERMKMQNQIYNLLTPEQQAKFKARFEAHTGKEPRSLEHHHHHH,failed
3,MMKTMDIIIPREFVSDDQYLLQKLCVVNNDFVKEGEILALIESSKSVIDVTSPADGYVYFFSDEGDIVSVGERLALLASTKEALQVEIENSNKNSQRRKESETKSEDVSLSGVRCSKKALLLMKQHNIDVGAFDGLGMVTAQDVEHYLSSREKAVKATVAPSSVNRQKIIILGGGGHSKVCIDILRQAQSFTIAGILDSIQDIGAEVLGIPVIGRDTMPELLKTRESGISLAVNGIGLIPDHRNRCKLFERLLEAGFHLPNLIHPKASIEPSAKLGEGNQIMAGAIIGSDVTVGNYCLINSGVVVSHDCIIDDHVHLAPGALLAGAVRVGRNSLIGMGVTIYAKVTIGSNVVIANGANVFHDVPDNTVVKI,failed
4,MMLAGCQSEEETSQFLLACKYDAPATIAAMLDNGIDVDGQDKTGLSGLMVAAAENRRDVVELLLKRRAKPNLQTRQGVTALMLAAARGSDTAIIGDLLQAGASVNQTSIDKSTALMSAISDGGDVRNDYQHILAMKKPDAPVEEESTLDKIVGATAAKSLATGNRALMTEDMALQLAPGAFKKNVDEIVALLLKHGADVKAVNVSGESAFFLAVDHARSAETITTLANAGADTSLADKSGTTPLMLAAAGDDPDLVLALSASGVEVDKPNREGLTALQVAAGQGAPAVIAALAQRGAKVDQLSANDLSPLMLAVKMNNKANVEALLAAGASVNLSNKAGYTAIGYSRAGEVRQLLLAQHAELKGQAAHMAQSELQFCANAFADKLAYSDIARAVNNDTRPDIMRHQQSCPELGELTMLLGEFTFTPAGATYLGEPVTCKVSEYRKTFEVNCR,failed
5,MMLLQQFKKIITVLIQVLVIMGITYLGNVIQRYMHIPIAGSIVGLLLFFLLLQFKVIPAKWVNEGSNFFLTTMVFFFVPSVVGIMDVVPMINLNFILFFSMILLGTCCVALISGFIAEKMVKNKQDGNGVN,failed
6,MMLSSNSFSLNLSNEDYIWPLEEDQEETTDSSGPMMLSPPLPEGACFNFEDRNTVYVHSRRPEDTPKSFELYSIPEDLALDSPFPSCEQTTFFTTKPDKSFLLDIKNSSPLNIGRMQNSRS,not failed
7,MMLYRYTQTKLAQIASELKQTGLWSATAPSVEAMASTAPFACDLMPFEQWLQFIFIPRMQALIDAGQALPSQIAIAPMAEHLWSEQAALAPLISTLNELDILLNEPRLEHHHHHH,not failed
8,MMMIFAVLGIFDFLRGEDEGESLEKYLRKLEDLLEEEFDTLVRIAGFYAEEGDTREALDYLERAYRVASEMNDEELMAFALDSMGDVYLSDRKVKTAMEYFMEALRIYTSVNSPLRADLREKIKEVEKIREAMDIASINRLREESESGMPEVDLEVIEPLLNRLVDSVQSLTLYEAGSYEDSISQIMEAYQIARDIGDTSTEASLQLLLGLYSLKNEDFDESRRYLKKAEALFRKTNNELGLAVALVLLGTLDFIRNNADGVASSFRAAVEILQKLDEKELESVTLELLNTLYSF,failed
9,MMMLQGSKSGSEMEVTWEDQQNINIFSRLNNRVHDLDDDIKSAKEKCENLEDAGNELILADEEMVRFQIGEVFAHVPRDDVETKIEEMKEATCKSLEKLEQEKESIVTQMAALKKVLYAKFKDSINLEED,failed
10,MMNDSKARYGSITRFFHWSMAILVSWQFLKFFDRINDGEHWVGETLVPWHISIGSLILVLIVLRLGWTVKEKGNRPEHGSIIGVLAKIGHGLLYVALVLMPVTGIFYMVGNGYGLSAFNLEIIAKGEEVSWLINIGSLHSYIAWGLLFLVAGHIGMAFVHQFIIKDGTLKRMM,failed
11,MMNTSDNHALGDFLRARRQRLDPATFGFPAGRRRTPGLRREEVAQLASISPTWYTWLEQGRGGAPSREVLERIARGLRLTTPEREHLFILAFGHPPQTRLTVTDDMTPRLQRVLDAFTIPAIIRTASW,failed
12,MMPLILSNTGEEVVIKKISGSDKTRTFLNSIGFVVGTNVKIVSKIDGNLIIDVKDTRVALDKKMASRIIILEHHHHHH,failed
13,MMPRLFLLAGLVSAPPLSLDPEPPSSIKMTYSGIVDAGSTGTRLNIYGFLDGEIRHQGLFTNTSRLASIEDDEEIKTSIRELFAHAEPFYSNIKKMPIGFYGTAGFRTLDKSRSDHVLDLIRSELKDYNLKEAEVINGVDEGKLALMALVLSNRGTDAGHRSLGIVDMGGGSTQISLLERDGKVISESIDLGITVLSLSDPDECKIEGDAEQESCASHIASKLAGVAIRPFLNSVDDLYLLSYFHDEFGKVIRSEKTSMREVKDEFYKRCNLLESHECRRLFYLISFIKSLGIEDTKAIHQIDTNNGINITWASGKGYELNKKYN,failed
14,MMRHSSLRLIIGGLILLLFVLNVFSKEQGSHSHKRSHSAKRFSRDSNSARERRPNIILILTDDQDVELGSLNFMPRTLRLLRDGGAEFRHAYTTTPMCCPARSSLLTGMYVHNHMVFTNNDNCSSPQWQATHETRSYATYLSNAGYRTGYFGKYLNKYNGSYIPPGWREWGGLIMNSKYYNYSINLNGQKIKHGFDYAKDYYPDLIANDSIAFLRSSKQQNQRKPVLLTMSFPAPHGPEDSAPQYSHLFFNVTTHHTPSYDHAPNPDKQWILRVTEPMQPVHKRFTNLLMTKRLQTLQSVDVAVERVYNELKELGELDNTYIVYTSDHGYHLGQFGLIKGKSFPFEFDVRVPFLIRGPGIQASKVVNEIVLNVDLAPTFLDMGGVPTPQHMDGRSILPLLLSRNRAVRDNWPDSFLIESSGRRETAEQIAESRARLQIERRNMKLANSSLLEDFLEGAGESTTIVSSSSTAATLMSSTAQQPEDGEEEVETDNEEDDVDGDGAMDSSAAALEEDDLDDAAFEEGDEELDQEFQQNNDLPLAPYITKMMRLNSECSDPALLKNCLPGQKWKCVNEEGRWRKHKCKFHLQLEHQLAAMPRKQYQRNCACFTPDGVVYTKIRAPSAGLHRVNKRTHNGPGRRRNKREVFHTELPDEMEELLDLHQVVDQLVDHTHRSKRDLPASSNETIAQVIQQIQSTLEILELKFNEHELHASNSSGNSYERGEKYTKSGGHRCFVDATTAKVNCSNVIYDDEKTWRTSRTQIDMLIKLLKDKIGKLKEMKKQLRESNKQALAAGRRNDNRRRNDQSVLDSGAGPEFNMSYFTEISSTPRSNVVGQTEVFQGYGSASAFDSLEQTQSHRFTPRAECYCEPDVGENHADSKEMAREARRKLKEERQRKKERKRIKKARLEKECLSEKMNCFSHDNQHWRTAPLWNDSPFCFCMNANNNTYSCLRTINGTHNFLYCEFTTGLITFYNLTIDRFETINRAAGLTPGERSHMHDALDQLKSCRGRSCSIRRHQNHLEGGSSAPLLPINQVHRNNKRKHSPLAGAVGNYAFVGPRLDMEALPPIKRRKLSKYNRLTGSQQSHMKRRPWKQTPLQQSPRFLRTHSVTPAQA,failed
15,MMRKHFLSRSSLRAIVLCVSLGTLSAQAVSVPNAIAQSSLPASPLDSFYSSIPSGENTVAGTVLSEQVIPTGLLDATIKVKRIAYSSTHPSGRMVPTIATILTPTAPWTGSGPRPAALLAPGTQGAGDQCAPSKLITVGAEYELFPAIMLLRRGWTVAITDYQGLGTIGAHTYMNRKAQGAALLDLGRAVVNVKYPEVRKDAPLILWGYSQGGGASAAAAEMHASYAPDVNIRGGFAGGVPAELLATARSLEGSPLLGALGYAISGMYETHPELRLEVDDLLNDRGKQWIIDSGTHCLLDSFRTMPIPDSRVMTRSGQRLTDLLGSKVFHSYFEEQRLGKVAPDVPMFVSQGANDDIIPAQQARDMVSNWRDLGADVTYFEDPAPLLVRMEGHVRPLVTSFDPALQWAEKLLGSEVINPPSAS,failed
16,MMRRQRDEQQSRVFYDLSSLVLNLLRSPPMPISLPDHFPDPPARIRPPFSSHRFSSSSPSLAHISPSGFASLLLGISVALMLCGSVTFFIGFLLMPWVLALILVFYVAGIVSAISMVGRSILCYVLTPPSPSGKEISEWKLL,failed
17,MMRRVSLGSRLALLFAACTATVSLGAGLLFSRASEQHFVELDQQLLDSRLSLFRTQLAGVSTADELQARLPALRDELSHQADLALRISASNGATWFESRSGLPHAAQATGLATLHAPGIDYRSLSVPLTQGAMQSPRLTLYLDITHHQHFLQGMQRLIWLTVGLSALITALLGAWAARSGLRPLRQMGQVAASVSARSLTTRLPVAQMPEELAELASSMNAMLQRLDDAFQRLSAFSADIAHELRTPLSNLLTHTQVTLTRPRSLEEYREALHGNLEELQWMAQMINDMLFLAKADHGLLVPGDAPLALHDEVDALLEYYAPLAEDSDVQMLREGEAVLHGDQHMLRRALSNLLDNAMRFTPAGGQIKVTLGPGPTINVANTGLAIDPAALPRLFDRFYRVDPARREGSSEHAGLGLAITRSIVQAHGGCIRAECEGGWTRFVIEFTQDR,failed
18,MMSAQRVVRTVRTARAISTALAVAIVLGTGVAWSSVRSFEDGIFHMSAPSLGHGGDDGAIDILLVGLDSRTDAHGNPLSAEELATLHAGDEEATNTDTIILIRVPNNGKSATAISIPRDSYVAAPGLGKTKINGVYGQTRETKRAGLVQAGASPTEAAAAGTEAGREALIKTVADLTGVTVDHYAEIGLLGFALIADALGGVDVCLKEPVYEPLSGADFPAGRQKLNGPQALSFVRQRHDLPRGDLDRVVRQQAVMAALAHRVISGQTLSSPATLKRLEQAVQRSVVLSSGWDIMDFVRQLQKLAGGNVAFATIPVLDGAGWSDDGMQSVVRVDPRQVQDWVVGLLHEQDQGKTDELAYTPAKTTANVVNDTDINGLAAAVSKVLSSKGFTTGSVGNNDGDHVPGSQVRAAKADDLGAQQVAKELGGLPVVADASIAPGSVRVVLANDYSGPGSGLGGSDPNGVVSPARAFNLGSADDTTPPPSPILTAGSDAPECIN,failed
19,MMSQISLADLNAADKADFVAALANVVEYSPWIAEKLAGQRPFTGINQLHAALMAAIQSAEPDVQLALIRAHPDLANKTQRAAGLTAESTDEQNSAGLDRLSDAEYAAFERVNNAYREKFGFPYIVCVRRHTKDSVLRDFETRLLNIAKTETRRAIEEIGRISALRLDQLVVADDKLKVHGRLSTHVLDNHAGKPAPGIPVELIELASLGESRVIARTVTNADGRTDQPLIGGRPLPIGRYELRFRVAKYYAERNVPLSEPPFLDEIPLRFAISEPENHYHVPLLVTPWSYATYRGS,failed
20,MMTGRKRGMIMSRRIITIGRQYGSNGRRIAKKLSEKLGIHYYDKELIKLASEQNDISYDELVKVDEKRANPWRYPVEDPAQMESRFRFEPMNDVLFYTQAQIITRLADTEDCIIVGRCANDILKSRPTSRSIFIHAPLDYRLQTVMERTSLEEKEALSLIKKVDKQRKFYYNYYTDKKWEEMSQYDLCLDSSAMSEDEILNVLTALYESIL,failed
